Reference: paper PMC2978359

Experiments:
[1] = biological target: T1, MBD of MeCP2 (wild type) (human/mouse (residues 76-167 identical), UniProt P51608 76-167); assay: EMSA/T4 endonuclease V
[2] = biological target: T1, MBD of MeCP2 (wild type); assay: EMSA
[3] = biological target: T1, MBD of MeCP2 (wild type); assay: EMSA/T4 endonuclease V; remark: listed apart in the source
[4] = biological target: T1, MBD of MeCP2 (wild type); assay: EMSA; remark: listed apart in the source
[5] = biological target: T1, MBD of MeCP2 (wild type); assay: EMSA; remark: listed apart in the source

T1 sequence (P51608 76-167): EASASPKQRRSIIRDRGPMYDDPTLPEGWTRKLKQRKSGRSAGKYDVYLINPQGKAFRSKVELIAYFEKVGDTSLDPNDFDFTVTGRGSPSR

B1: T=TmCG•mCGAA CPD duplex (dsDNA)
DNA 1: TAGAAGAATTTCGTTCCAGA
DNA 2: TCTGGAACGAAATTCTTCTA
modifications: 5-methyl-dC at strand 1 pos 12 and strand 2 pos 8; cis-syn CPD between T10 and T11
Kd [1]: 0.013 ± 0.003 µM

B2: CmCG•mCGG in AT tract (dsDNA)
DNA 1: TTATTTTTATCCGTTTTTAATTAT
DNA 2: ATAATTAAAAACGGATAAAAATAA
modifications: 5-methyl-dC at strand 1 pos 12 and strand 2 pos 12
Kd [2]: ~0.015 µM

B3: CmCG•mCGG duplex (BDNF promoter III) (dsDNA)
DNA 1: TAGAAGAATTCCGTTCCAGA
DNA 2: TCTGGAACGGAATTCTTCTA
modifications: 5-methyl-dC at strand 1 pos 12 and strand 2 pos 8
Kd [3]: 0.046 ± 0.026 µM | Kd [4]: 0.0125 ± 0.0035 µM

B4: CTG•mCGG single-mismatch duplex (dsDNA)
DNA 1: TAGAAGAATTCTGTTCCAGA
DNA 2: TCTGGAACGGAATTCTTCTA
modifications: 5-methyl-dC at strand 2 pos 8
Kd [5]: 0.066 ± 0.022 µM

B5: T=TTmCG•mCGAAA CPD duplex (dsDNA)
DNA 1: TAGAAGAATTTCGTTCCAGA
DNA 2: TCTGGAACGAAATTCTTCTA
modifications: 5-methyl-dC at strand 1 pos 12 and strand 2 pos 8; cis-syn CPD between T9 and T10
Kd [1]: 0.047 ± 0.014 µM

B6: TmCG•mCGA duplex (dsDNA)
DNA 1: TAGAAGAATTTCGTTCCAGA
DNA 2: TCTGGAACGAAATTCTTCTA
modifications: 5-methyl-dC at strand 1 pos 12 and strand 2 pos 8
Kd [5]: 0.035 ± 0.009 µM | Kd [3]: 0.075 ± 0.035 µM

B7: C=mCG•mCGG CPD duplex (dsDNA)
DNA 1: TAGAAGAATTCCGTTCCAGA
DNA 2: TCTGGAACGGAATTCTTCTA
modifications: 5-methyl-dC at strand 1 pos 12 and strand 2 pos 8; cis-syn CPD between C11 and mC12
Kd [1]: 0.011 ± 0.003 µM
